# Reference: doi:10.1101/2021.04.24.441265
# B1: FP_CREBmeth (half-CRE•C/EBP Il36A, methylated) (dsDNA)
# DNA 1: CATCTTACGTCACCT
# DNA 2: AGGTGACGTAAGATG
# modifications: mC at strand 1 position 8 and strand 2 position 7 (CpG, both strands)
# Target: C/EBPβ bZIP domain (mouse, UniProt P28033 221-296)
# Assay: fluorescence polarization
# Chain of C/EBPβ bZIP domain (P28033 221-296): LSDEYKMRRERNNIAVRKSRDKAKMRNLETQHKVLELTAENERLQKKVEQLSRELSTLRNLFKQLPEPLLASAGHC
binder,measurement,value
B1,Kd,100 ± 30 nM
